# Assay results as given in the supplement of paper PMC10567573.
# ± gives the standard deviation.
# Assay: protein stability index of a GFP-peptide fusion (GPS, HEK-293T) (PSI 1-6); higher = more stable
# [1] = treatment: DMSO, c terminus: a fixed tail appended
# [2] = treatment: MLN4924 1 uM, 8 h, c terminus: a fixed tail appended
# [3] = treatment: DMSO, c terminus: native
# [4] = treatment: MLN4924 1 uM, 8 h, c terminus: native
# 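Note: 24-mer peptide tiles fused after GFP, lentivirally expressed, FACS-sorted into six equal bins by GFP/DsRed ratio, decoded by Illumina sequencing, PSI is the read-weighted mean bin number.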
Sequence,protein stability index [1],protein stability index [2],protein stability index [3],protein stability index [4]
SRSTSFRGGMGSGGLATGIAGGLA [KRT18],3.3 ± 0.066,3.33 ± 0.37,–,–
RSIQGHNDYICPATNQCTIDKNRR [ESR2],3.84 ± 0.43,4.21 ± 0.33,–,–
DSGVQACFNRSREYQLNDSAAYYL [GNAI1],2.8 ± 0.15,2.75 ± 0.17,–,–
VAREDVRESCPPLGLETLKITDFQ [CPXM2],3.96 ± 0.48,4.09 ± 0.33,–,–
TPPSSRRVWSPPRVHKVEMGFGGG [ZBTB22],3.22 ± 0.4,3.33 ± 0.081,–,–
RSLNVFVKDDDRLTFHRHPVAQST [SPSB4],3.51 ± 0.3,3.62 ± 0.29,–,–
FWNSPSSPSSSAASSSSPSSSSAV [RHOBTB2],4.41 ± 0.14,4.4 ± 0.089,–,–
VRQAFQDQDDRRTWDGRPLTMAAT [GFOD1],3.829 ± 0.031,3.65 ± 0.26,–,–
TNSDVLAQQFALMAPLLFNGCRSG [DCAF4],2.23 ± 0.27,2.14 ± 0.3,–,–
MTLEEFSAGEQKTERMDKVGDALE [GADD45A],5.28 ± 0.15,5.36 ± 0.18,–,–
QFVEGVRMEEIVEGCTGALHILAR [CTNNB1],3.12 ± 0.52,3.05 ± 0.64,–,–
RREQAAAAPFPSPAPASPAISVVG [TFE3],4.22 ± 0.35,4.24 ± 0.18,–,–
FEDLPLQEPQSPQKLNPGFDLAKG [PLAGL1],5.03 ± 0.14,4.83 ± 0.19,–,–
NYRSFEPILRLLPQGISPVSQHWA [ZER1],2 ± 0.27,2.09 ± 0.26,–,–
GDGLLVGSEKVTMQNLNDRLASYL [KRT16],2.66 ± 0.17,2.78 ± 0.32,–,–
KAILEQNFRDLVRDLEKQKEEVRA [TRIM29],4.43 ± 0.31,4.48 ± 0.24,–,–
EVDEEGFTVRPDVTQNSTAEPSRF [FCHO1],5.26 ± 0.13,5.26 ± 0.2,–,–
TQMIREGGARSLWRGNGINVLKIA [SLC25A25],2.72 ± 0.25,2.77 ± 0.21,–,–
RENMSDGDTSATESGDEVPVELYT [KMT2E],5.32 ± 0.21,5.21 ± 0.22,–,–
FRSRSRLTHLSLSRRASESSLSSE [CDC25B],3.84 ± 0.22,3.99 ± 0.099,–,–
ADRCSPKEDQAWDGASQDCPPLPA [FBXO34],5.27 ± 0.18,4.99 ± 0.14,–,–
KRESFLKYKCLLQQLYYTEADYED [IQUB],2.2 ± 0.31,2.49 ± 0.3,–,–
PIMSGQGLAGFFASVAMICAIASG [SLC29A1],3.12 ± 0.21,3.13 ± 0.48,–,–

Sequence,protein stability index [1],protein stability index [2],protein stability index [3],protein stability index [4]
MWWRGCKIKAIMALVAAILLLVII [VAMP4],2.89 ± 0.096,2.855 ± 0.027,–,–
TCLTGVLGVGLGVEISRRLRHSNP [SPNS1],2.36 ± 0.22,2.09 ± 0.36,–,–
TFFLRTDAETPPRFTRTPVDQTGV [PTPRD],3.42 ± 0.16,3.28 ± 0.45,–,–
RWSLISLSNKNGKNVELKFVDSIR [TENT5C],2.39 ± 0.26,2.36 ± 0.44,–,–
EDQGGLEAVRQEMRRQEPLPPPPP [WAS],5.3 ± 0.15,5.42 ± 0.22,–,–
FFFSSPGNNNGTSIEDGQIPEIIF [BTBD1],2.39 ± 0.22,2.44 ± 0.33,–,–
FKRSTGTWHHTKPLLPSDLRRTGC [GAN],2.78 ± 0.22,2.82 ± 0.39,–,–
ATLFFHYIKTPLFNPEVAKYLKVP [IQUB],2.93 ± 0.21,2.57 ± 0.66,–,–
GIDIMKTSFPGRGSIPEFFHIMKR [AASDHPPT],2.33 ± 0.59,2.501 ± 0.013,–,–
ILDQTTSEDAVGGATLGQTTSEEA [HDAC6],5.42 ± 0.065,5.5 ± 0.15,–,–
SLVMGSQTESALSKKLRAILPKQS [LCOR],2.71 ± 0.21,2.95 ± 0.37,–,–
HLIKHRRTHTGEQPYTCSICRRNF [ZNF75A],2.56 ± 0.28,2.99 ± 0.41,–,–
VTVKDETATMKDLEAEVKDTTRVE [R3HDM1],5.33 ± 0.17,5.56 ± 0.053,–,–
PIPHVFSAGTGSAILPHFHHAFR [PLAGL1],–,–,3.04 ± 0.22,3.17 ± 0.16
LQGSLFGLAGLLPASYTAPIMSGQ [SLC29A1],2.44 ± 0.28,2.27 ± 0.3,–,–
PVTSIGIDNLGLKLEENLQETHSA [SLC35F2],5.06 ± 0.19,5 ± 0.11,–,–
KIDDLMQEITEQQDIAQEISEAFS [CHMP4C],4.75 ± 0.35,4.67 ± 0.28,–,–
MAAAQEADGARSAVVAAGGGSSGQ [CLPTM1],5.36 ± 0.26,5.29 ± 0.2,–,–
QALEKIFLQKVAQMPQEEVELLPP [BRD3],2.63 ± 0.26,2.83 ± 0.4,–,–
GTGAVVTSLFMTPLDVVKVRLQSQ [SLC25A39],2.18 ± 0.11,2.06 ± 0.52,–,–
MAERLEDSVLKGMQAASSKMVSAE [SDE2],4.54 ± 0.36,4.55 ± 0.24,–,–
LFKAHFRGEVLPEEITEESLEESV [INTS3],4.9 ± 0.091,4.962 ± 0.037,–,–
TFHHPTYGSCYTVDGVWTAQRPGI [SCNN1D],2.61 ± 0.41,2.61 ± 0.29,–,–

Sequence,protein stability index [1],protein stability index [2],protein stability index [3],protein stability index [4]
SRLVAGEYLSFFDFSGLTLDGALR [PSD2],1.93 ± 0.094,2.3 ± 0.29,–,–
ADDESLLRTSNGQPVKTAGEITQH [DNAAF3],5.26 ± 0.35,5.26 ± 0.2,–,–
GMDPERLKAFNMFVRLFVDENLDR [NOL4L],2.1 ± 0.42,2.39 ± 0.37,–,–
NKTLLRLRLRKERVSDVQKVLQGG [PKD2L1],2.65 ± 0.23,2.94 ± 0.35,–,–
RTPRLMPDKESMYYPRVQHYRELL [GDAP1],2.52 ± 0.17,2.61 ± 0.27,–,–
RLPNRQLISCSEDGSVRIWELREK [WDR41],3.23 ± 0.2,3.31 ± 0.42,–,–
LEQRRQQASEREAPSIEQRLQEVR [FCHSD1],5.37 ± 0.32,5.26 ± 0.12,–,–
YLNHVRAASPQDLAGGYTSSLACH [MNAT1],2.85 ± 0.39,2.95 ± 0.34,–,–
ITKAFHVRKANRIKECLSKGTFSD [RHOBTB1],2.7 ± 0.25,2.81 ± 0.51,–,–
SWQDLKDHMREAGDVCYADVYRDG [SRSF1],3.96 ± 0.68,4.21 ± 0.12,–,–
VVKKIALREIRMLKQLKHPNLVNL [CDKL4],2.2 ± 0.76,2.63 ± 0.11,–,–
INRADYCPECYPDNPANRSLVLPW [TOR1AIP2],2.29 ± 0.33,2.76 ± 0.55,–,–
MRGRIYLEPPTMRKKRLLDRKVLL [GOLPH3L],2.34 ± 0.27,2.47 ± 0.29,–,–
GGLVVSAASLAGCLGALCENTCLL [TSPAN10],2.79 ± 0.57,2.67 ± 0.54,–,–
LHQTVERIHVGKKYGDIPRGIFVV [LSM1],2.76 ± 0.59,2.59 ± 0.63,–,–
TVIHDFLFSLKESPEKFQIEANFP [FAF2],2.14 ± 0.37,2.03 ± 0.19,–,–
RVEFPRSGRGTGRGGGGGGGGGAP [SRSF1],4.7 ± 0.39,4.8 ± 0.28,–,–
QRRRRVENAGGSPSPEPAGRRAAL [RSAD1],5.11 ± 0.4,5.15 ± 0.27,–,–
TPHMLLDLSDLLQVDSLRPASFPT [BRF1],2.28 ± 0.2,2.43 ± 0.2,–,–
VWERPARSALWCLGLNAAFWFFAL [RETREG3],2.62 ± 0.77,2.61 ± 0.2,–,–
DAFWWAVVTMTTVGYGDMHPVTIG [KCNA3],3.67 ± 0.52,3.17 ± 0.31,–,–
AKIEVEKLKAIRLRHDLPEYNSL [RAD54B],–,–,3.62 ± 0.21,3.81 ± 0.2
MASSAASSEHFEKLHEIFRGLHED [VTI1B],4.29 ± 0.16,4.28 ± 0.1,–,–

Sequence,protein stability index [1],protein stability index [2],protein stability index [3],protein stability index [4]
SPSSDLDTDAEGDDFELLDQSELS [RETREG3],5.56 ± 0.13,5.38 ± 0.12,–,–
QQGLGASYRTESAQRQACMYASSA [TBX5],3.8 ± 0.17,3.82 ± 0.2,–,–
FKTYISPWERAMGVDPQQKMELGI [MYOZ1],2.42 ± 0.25,2.31 ± 0.38,–,–
YSKFHGLEMCVDARTFGNEARFIR [KMT2E],2.21 ± 0.17,2.25 ± 0.22,–,–
NKEYIKRLLMSQADKMTAEEVDQM [MYL5],4.53 ± 0.28,4.48 ± 0.23,–,–
PKSPATPKQLRLINQPLPDLKNVK [MAP2],4.51 ± 0.27,4.793 ± 0.034,–,–
PVLKRSSESMENINSGYETRRKKG [KMT2E],4.87 ± 0.28,4.72 ± 0.29,–,–
PPKQAQKEQRKQMKGRGQLEKPPA [TBC1D10A],5.26 ± 0.18,5.29 ± 0.21,–,–
SSLPGHAAKTLPGGAGKGRTPSAF [EHMT1],3.98 ± 0.34,4.26 ± 0.32,–,–
NLGGGDPKGWRQLAQEAEAWLNYP [OAS1],3.22 ± 0.26,3.37 ± 0.26,–,–
VMFKIGDLGHVTRISSPQVEEGDS [WEE1],3.44 ± 0.23,3.45 ± 0.37,–,–
LSRQEFLGMVGLFGTIISGIQLLI [SLC35F2],2.28 ± 0.25,2.09 ± 0.33,–,–
LGVGLLTFASLETVGIYFGLVYRI [TMEM40],3.17 ± 0.25,3.29 ± 0.22,–,–
GELEDESLNRACHQQNKIKDLQKE [CEP70],5.3 ± 0.28,5.34 ± 0.24,–,–
YVPSSESFIIYLKNIVIADFVMSL [P2RY14],2.89 ± 0.96,2.74 ± 0.78,–,–
SLVADNCVTLVWRMPDEDSKIDHY [FSD1],2.62 ± 0.15,2.94 ± 0.34,–,–
SEVKEELAGQKDELQLSDLLKQGY [PKD2L1],4.81 ± 0.28,4.92 ± 0.24,–,–
RPPAYSPAQRSHTYTHGLGLHRRP,3.63 ± 0.28,3.75 ± 0.16,–,–
RRNEETPEEGQQPWLCGESFTLAD [GDAP1],5.02 ± 0.13,4.99 ± 0.3,–,–
ADADCFVCVFLSHGEGNHIYAYDA [CASP6],2.82 ± 0.66,2.81 ± 0.75,–,–
